According to patent publication US8685665 (CHEMO SERO THERAPEUTIC RESEARCH INSTITUTE, dated 2014):
Where a chain is given by its changes, count along the chain named. Names and notes keep the numbering of the source.

T1: FRETS-VWF73, P04275
T1 chain: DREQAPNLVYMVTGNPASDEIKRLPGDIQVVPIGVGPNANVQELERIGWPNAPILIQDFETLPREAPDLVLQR

B1: ADAMTS-13W688X mutant R349A (enzyme, human, UniProt Q76LX8 75-688, looked up)
chain: AAGGILHLELLVAVGPDVFQAHQEDTERYVLTNLNIGAELLRDPSLGAQFRVHLVKMVILTEPEGAPNITANLTSSLLSVCGWSQTINPEDDTDPGHADLVLYITRFDLELPDGNRQVRGVTQLGGACSPTWSCLITEDTGFDLGVTIAHEIGHSFGLEHDGAPGSGCGPSGHVMASDGAAPRAGLAWSPCSRRQLLSLLSAGRARCVWDPPRPQPGSAGHPPDAQPGLYYSANEQCRVAFGPKAVACTFAREHLDMCQALSCHTDPLDQSSCSALLVPLLDGTECGVEKWCSKGRCRSLVELTPIAAVHGRWSSWGPRSPCSRSCGGGVVTRRRQCNNPRPAFGGRACVGADLQAEMCNTQACEKTQLEFMSQQCARTDGQPLRSSPGGASFYHWGAAVPHSQGDALCRHMCRAIGESFIMKRGDSFLDGTRCMPSGPREDGTLSLCVSGSCRTFGCDGRMDSQQVWDRCQVCGGDNSTCSPRKGSFTAGRAREYVTFLTVTPNLTSVYIANHRPLFTHLAVRIGGRYVVAGKMSISPNTTYPSLLEDGRVEYRVALTEDRLPRLEEIRIWGPLQEDADIQVYRRYGEEYGNLTRPDITFTYFQPKPRQAWVW
notes: Disintegrin-like domain mutant; also called R349(11); not shown: C-terminal FLAG tag
B2: ADAMTS-13W688X mutant R498A (enzyme, human, UniProt Q76LX8 75-688, looked up)
chain: B1 chain with A275R, R424A
notes: Cysteine-rich domain mutant; also called R498(29); not shown: C-terminal FLAG tag
B3: ADAMTS-13W688X mutant E634A (protein)
chain: B1 chain with A275R, E560A
B4: ADAMTS-13W688X mutant D635A (protein)
chain: B1 chain with A275R, D561A

Assays:
FRETS-VWF73, P04275 = biological target: T1, FRETS-VWF73, P04275
[1] = biological target: T2, von Willebrand factor derived from human plasma (human, UniProt P04275 764-2813); assay: ELISA, plasma VWF immobilized on plate, relative to wild type W688X
T2 construct: mature; also called VWF; natural substrate VWF
Protocol: Each of the purified mutants of Example 3 was evaluated for their binding ability to VWF derived from human plasma immobilized on ELISA plate as described in Non-patent reference 8. The concentration was normalized by sandwich ELISA using the anti-human ADAMTS-13 rabbit polyclonal antibody and an HRP labeled form of the anti-FLAGM2 murine monoclonal antibody (SIGMA CORPORATION) as described above and the VWF binding ability per unit concentration was quantified. Finally, the mutants were evaluated for a relative activity as compared to the specific activity of wild type W688X with no alanine substitution, the specific activity of which is 1.

[2] = biological target: immunoglobulin G (IgG) fractions isolated from acquired TTP patients

Binder | cleaving activity to FRETS-VWF73, relative activity against wild type W688X (FRETS-VWF73, P04275) | binding result [1] | cleaving activity to FRETS-VWF73 per 1 min (ΔFU/min) with and without patient antibodies [2]
B1 | led to the significantly reduced enzyme activity | binds | –
B2 | led to the significantly reduced enzyme activity | binds | –
B3 | – | – | depending on patient antibody, K608A, E634A and D635A had a sufficient enzymatic activity
B4 | – | – | depending on patient antibody, K608A, E634A and D635A had a sufficient enzymatic activity
